Measurements reported in PMC6116569, “Activity of Vsr endonucleases encoded by Neisseria gonorrhoeae FA1090 is influenced by MutL and MutS proteins” (BMC Microbiology, 2018).

How the values were obtained:
[1] = system: MutS (Neisseria gonorrhoeae FA1090); test: EMSA; settings: 0.75 uM protein, 1 mM ATP, 10 mM Ca2+, 10 mM Tris-HCl pH 7.5, 10 mM CaCl2, 0.1 mg/ml BSA, 0.15 uM substrate DNA, 0.032 uM competitor DNA, 20 ul, temperature not stated, 5% PAGE with …
[2] = target: V.NgoAXIV endonuclease, two-hybrid fusion (ngoAXIVV gene in pC22, plasmid pAK25) (N. gonorrhoeae FA1090); test: two-hybrid; bacterial two-hybrid system (Di Lallo et al.) in E. coli R721 with lacZ as reporter: fusions to the N-terminal domains of the phage P22 and 434 repressors; an interaction represses β-galactosidase; LB with 0.1 mM IPTG, 37 °C; read-out is the ratio of Miller Units to the plasmid-less strain, a ratio below 0.5 counts as interaction
[3] = target: V.NgoAXIII endonuclease, two-hybrid fusion (ngoAXIIIV gene in pC22, plasmid pAK24) (N. gonorrhoeae FA1090); test: as above
[4] = target: T1, MutS protein of N. gonorrhoeae FA1090, His-tagged, purified (plasmid pAK21) (N. gonorrhoeae FA1090, UniProt Q5F5J4 1-864); test: pull-down; protein affinity chromatography: 250 μg V.NgoAXIII, V.NgoAXIV or MutLNgo coupled to Affi-Gel 10; 250 μg His-tagged MutLNgo or MutS applied in 25 mM Tris pH 7.5, 50 mM NaCl with 2 mM ATP and 5 mM MgCl2; washed with the same buffer, eluted with 250 mM NaCl; fractions blotted with an anti-His-Tag antibody; settings: both partners purified
T1 construct: MutS of Neisseria gonorrhoeae FA1090; mutS gene (2595 bp) amplified from chromosomal DNA with primers MutSNheI/MutSNgoR and cloned into the NheI-HindIII sites of pET28a(+); The His-Tag at the amino terminus is encoded by the vector; also called gonococcal MutS protein; source: E. coli BL21(DE3)pLys (pAK21), autoinduction, purified (Ni-NTA Agarose); not shown: His-Tag, N-terminal, kept
T1 sequence (looked up): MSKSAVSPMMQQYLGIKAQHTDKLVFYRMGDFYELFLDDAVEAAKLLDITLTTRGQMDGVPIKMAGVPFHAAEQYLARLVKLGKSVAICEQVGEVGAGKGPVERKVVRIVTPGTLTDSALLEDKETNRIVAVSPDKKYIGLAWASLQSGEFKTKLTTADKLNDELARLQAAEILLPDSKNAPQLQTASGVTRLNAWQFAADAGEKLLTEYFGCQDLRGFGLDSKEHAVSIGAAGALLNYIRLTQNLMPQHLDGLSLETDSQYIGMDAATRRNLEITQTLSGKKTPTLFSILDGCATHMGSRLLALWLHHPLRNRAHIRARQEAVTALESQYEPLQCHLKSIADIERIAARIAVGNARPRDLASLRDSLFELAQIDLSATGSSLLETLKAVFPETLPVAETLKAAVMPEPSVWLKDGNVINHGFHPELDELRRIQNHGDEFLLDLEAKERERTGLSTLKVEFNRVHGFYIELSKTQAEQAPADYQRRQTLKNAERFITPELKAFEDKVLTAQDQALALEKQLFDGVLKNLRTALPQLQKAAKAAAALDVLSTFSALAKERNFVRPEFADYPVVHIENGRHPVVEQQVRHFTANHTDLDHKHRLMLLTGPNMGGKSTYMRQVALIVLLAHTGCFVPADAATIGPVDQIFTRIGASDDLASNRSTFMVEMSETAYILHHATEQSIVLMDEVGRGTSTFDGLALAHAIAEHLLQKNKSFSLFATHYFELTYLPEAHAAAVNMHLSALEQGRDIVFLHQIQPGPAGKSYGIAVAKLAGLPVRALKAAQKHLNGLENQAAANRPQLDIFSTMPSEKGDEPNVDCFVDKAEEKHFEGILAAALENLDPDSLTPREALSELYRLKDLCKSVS

[5] = target: T2, MutL protein of N. gonorrhoeae FA1090, two-hybrid fusion (mutLNgo gene in pC434, plasmid pAK26) (N. gonorrhoeae FA1090, UniProt Q5F8M6 1-658); test: two-hybrid; bacterial two-hybrid system (Di Lallo et al.) in E. coli R721 with lacZ as reporter: fusions to the N-terminal domains of the phage P22 and 434 repressors; an interaction represses β-galactosidase; LB with 0.1 mM IPTG, 37 °C; read-out is the ratio of Miller Units to the plasmid-less strain, a ratio below 0.5 counts as interaction; settings: partners not purified
T2 construct: MutL of Neisseria gonorrhoeae FA1090; mutLNgo gene (1977 bp) amplified from chromosomal DNA and cloned into the SalI-BamHI sites of pC434; also called gonococcal MutL protein; source: bacterial two-hybrid fusion, expressed in E. coli R721; not shown: N-terminal domain of the repressor of phage 434 (from the vector pC434), N-terminal, kept
T2 sequence (looked up): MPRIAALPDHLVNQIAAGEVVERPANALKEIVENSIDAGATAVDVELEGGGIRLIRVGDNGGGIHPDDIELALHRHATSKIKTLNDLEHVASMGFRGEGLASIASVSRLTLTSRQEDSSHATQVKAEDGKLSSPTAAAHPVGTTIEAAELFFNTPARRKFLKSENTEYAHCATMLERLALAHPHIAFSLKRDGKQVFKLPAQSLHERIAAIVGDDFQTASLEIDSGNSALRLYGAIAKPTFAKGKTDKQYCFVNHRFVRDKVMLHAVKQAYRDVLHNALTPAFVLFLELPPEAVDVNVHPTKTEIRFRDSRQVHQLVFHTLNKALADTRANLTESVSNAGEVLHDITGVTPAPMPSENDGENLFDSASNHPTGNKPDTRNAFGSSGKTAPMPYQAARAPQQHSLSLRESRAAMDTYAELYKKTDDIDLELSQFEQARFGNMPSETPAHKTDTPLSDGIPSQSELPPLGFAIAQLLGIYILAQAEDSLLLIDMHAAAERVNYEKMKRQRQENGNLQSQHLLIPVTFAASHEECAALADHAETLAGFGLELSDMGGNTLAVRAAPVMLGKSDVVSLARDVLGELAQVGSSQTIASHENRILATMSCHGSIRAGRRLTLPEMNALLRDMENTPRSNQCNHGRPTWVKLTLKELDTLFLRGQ

T:G mismatch substrate used with MutS (M.NgoA302P-sub or M.NgoA1175P-sub, not specified)
binding signal [1]: 90 % bound

B1: MutL protein of N. gonorrhoeae FA1090, two-hybrid fusion (mutLNgo gene in pC434, plasmid pAK26) (natural protein)
chain: MPRIAALPDHLVNQIAAGEVVERPANALKEIVENSIDAGATAVDVELEGGGIRLIRVGDNGGGIHPDDIELALHRHATSKIKTLNDLEHVASMGFRGEGLASIASVSRLTLTSRQEDSSHATQVKAEDGKLSSPTAAAHPVGTTIEAAELFFNTPARRKFLKSENTEYAHCATMLERLALAHPHIAFSLKRDGKQVFKLPAQSLHERIAAIVGDDFQTASLEIDSGNSALRLYGAIAKPTFAKGKTDKQYCFVNHRFVRDKVMLHAVKQAYRDVLHNALTPAFVLFLELPPEAVDVNVHPTKTEIRFRDSRQVHQLVFHTLNKALADTRANLTESVSNAGEVLHDITGVTPAPMPSENDGENLFDSASNHPTGNKPDTRNAFGSSGKTAPMPYQAARAPQQHSLSLRESRAAMDTYAELYKKTDDIDLELSQFEQARFGNMPSETPAHKTDTPLSDGIPSQSELPPLGFAIAQLLGIYILAQAEDSLLLIDMHAAAERVNYEKMKRQRQENGNLQSQHLLIPVTFAASHEECAALADHAETLAGFGLELSDMGGNTLAVRAAPVMLGKSDVVSLARDVLGELAQVGSSQTIASHENRILATMSCHGSIRAGRRLTLPEMNALLRDMENTPRSNQCNHGRPTWVKLTLKELDTLFLRGQ
ratio of Miller Units (β-galactosidase activity) to the plasmid-less strain [2]: 0.23 | ratio of Miller Units (β-galactosidase activity) to the plasmid-less strain [3]: 0.18

B2: MutL protein of N. gonorrhoeae FA1090, His-tagged, purified (plasmid pAK20) (natural protein, UniProt Q5F8M6 1-658, looked up)
chain: MPRIAALPDHLVNQIAAGEVVERPANALKEIVENSIDAGATAVDVELEGGGIRLIRVGDNGGGIHPDDIELALHRHATSKIKTLNDLEHVASMGFRGEGLASIASVSRLTLTSRQEDSSHATQVKAEDGKLSSPTAAAHPVGTTIEAAELFFNTPARRKFLKSENTEYAHCATMLERLALAHPHIAFSLKRDGKQVFKLPAQSLHERIAAIVGDDFQTASLEIDSGNSALRLYGAIAKPTFAKGKTDKQYCFVNHRFVRDKVMLHAVKQAYRDVLHNALTPAFVLFLELPPEAVDVNVHPTKTEIRFRDSRQVHQLVFHTLNKALADTRANLTESVSNAGEVLHDITGVTPAPMPSENDGENLFDSASNHPTGNKPDTRNAFGSSGKTAPMPYQAARAPQQHSLSLRESRAAMDTYAELYKKTDDIDLELSQFEQARFGNMPSETPAHKTDTPLSDGIPSQSELPPLGFAIAQLLGIYILAQAEDSLLLIDMHAAAERVNYEKMKRQRQENGNLQSQHLLIPVTFAASHEECAALADHAETLAGFGLELSDMGGNTLAVRAAPVMLGKSDVVSLARDVLGELAQVGSSQTIASHENRILATMSCHGSIRAGRRLTLPEMNALLRDMENTPRSNQCNHGRPTWVKLTLKELDTLFLRGQ
notes: MutL of Neisseria gonorrhoeae FA1090; mutLNgo gene (1977 bp) amplified from chromosomal DNA with primers MutLfor/MutLNgoR and cloned into the NheI-HindIII sites of pET28a(+); The His-Tag at the amino terminus is encoded by the vector; also called MutLNgo; gonococcal MutL protein; source: E. coli BL21(DE3)pLys (pAK20), autoinduction, purified (Ni-NTA Agarose); not shown: His-Tag, N-terminal, kept
binding result [4]: binds

B3: MutS protein of N. gonorrhoeae FA1090, two-hybrid fusion used with the MutLNgo fusion (plasmid pAK27) (natural protein, UniProt Q5F5J4 1-864, looked up)
chain: MSKSAVSPMMQQYLGIKAQHTDKLVFYRMGDFYELFLDDAVEAAKLLDITLTTRGQMDGVPIKMAGVPFHAAEQYLARLVKLGKSVAICEQVGEVGAGKGPVERKVVRIVTPGTLTDSALLEDKETNRIVAVSPDKKYIGLAWASLQSGEFKTKLTTADKLNDELARLQAAEILLPDSKNAPQLQTASGVTRLNAWQFAADAGEKLLTEYFGCQDLRGFGLDSKEHAVSIGAAGALLNYIRLTQNLMPQHLDGLSLETDSQYIGMDAATRRNLEITQTLSGKKTPTLFSILDGCATHMGSRLLALWLHHPLRNRAHIRARQEAVTALESQYEPLQCHLKSIADIERIAARIAVGNARPRDLASLRDSLFELAQIDLSATGSSLLETLKAVFPETLPVAETLKAAVMPEPSVWLKDGNVINHGFHPELDELRRIQNHGDEFLLDLEAKERERTGLSTLKVEFNRVHGFYIELSKTQAEQAPADYQRRQTLKNAERFITPELKAFEDKVLTAQDQALALEKQLFDGVLKNLRTALPQLQKAAKAAAALDVLSTFSALAKERNFVRPEFADYPVVHIENGRHPVVEQQVRHFTANHTDLDHKHRLMLLTGPNMGGKSTYMRQVALIVLLAHTGCFVPADAATIGPVDQIFTRIGASDDLASNRSTFMVEMSETAYILHHATEQSIVLMDEVGRGTSTFDGLALAHAIAEHLLQKNKSFSLFATHYFELTYLPEAHAAAVNMHLSALEQGRDIVFLHQIQPGPAGKSYGIAVAKLAGLPVRALKAAQKHLNGLENQAAANRPQLDIFSTMPSEKGDEPNVDCFVDKAEEKHFEGILAAALENLDPDSLTPREALSELYRLKDLCKSVS
notes: MutS of Neisseria gonorrhoeae FA1090; mutS gene (2595 bp) amplified from chromosomal DNA and cloned into the SalI-BamHI sites of pC434 and pC22; That pAK27 is the pC22 derivative is inferred: it was paired with the pC434-borne mutLNgo gene; also called gonococcal MutS protein; source: bacterial two-hybrid fusion, expressed in E. coli R721; not shown: N-terminal domain of the repressor of phage …
ratio of Miller Units (β-galactosidase activity) to the plasmid-less strain [5]: 0.39 ± 0.01
